Laboratory results from ChEMBL document CHEMBL1671790, “A new β-carbonic anhydrase from Brucella suis, its cloning, characterization, and inhibition with sulfonamides and sulfamates, leading to impaired pathogen growth” (Bioorg Med Chem, 2011).

Key:
[1] = substrate: O=C=O; assay: Ratio of kcat to Km for human carbonic anhydrase VA
[2] = substrate: O=C=O; assay: Activity at human carbonic anhydrase VA by spectrophotometry at pH 7.5
[3] = substrate: O=C=O; assay: Activity at human carbonic anhydrase XII by spectrophotometry at pH 7.5
[4] = substrate: O=C=O; assay: Ratio of kcat to Km for human carbonic anhydrase XII

Protein | kcat/Km [1] [×10⁷ /M/s] | kcat [2] [×10⁵ /s] | kcat [3] [×10⁵ /s] | kcat/Km [4] [×10⁷ /M/s]
Carbonic anhydrase 5A, mitochondrial (Homo sapiens), P35218 (protein) MLGRNTWKTSAFSFLVEQMWAPLWSRSMRPGRWCSQRSCAWQTSNNTLHPLWTVPVSVPGGTRQSPINIQWRDSVYDPQLKPLRVSYEAASCLYIWNTGYLFQVEFDDATEASGISGGPLENHYRLKQFHFHWGAVNEGGSEHTVDGHAYPAELHLVHWNSVKYQNYKEAVVGENGLAVIGVFLKLGAHHQTLQRLVDILPEIKHKDARAAMRPFDPSTLLPTCWDYWTYAGSLTTPPLTESVTWIIQKEPVEVAPSQLSAFRTLLFSALGEEEKMMVNNYRPLQPLMNRKVWASFQATNEGTRS | 2.9 | 2.9 | – | –
Carbonic anhydrase 12 (Homo sapiens), O43570 (protein) MPRRSLHAAAVLLLVILKEQPSSPAPVNGSKWTYFGPDGENSWSKKYPSCGGLLQSPIDLHSDILQYDASLTPLEFQGYNLSANKQFLLTNNGHSVKLNLPSDMHIQGLQSRYSATQLHLHWGNPNDPHGSEHTVSGQHFAAELHIVHYNSDLYPDASTASNKSEGLAVLAVLIEMGSFNPSYDKIFSHLQHVKYKGQEAFVPGFNIEELLPERTAEYYRYRGSLTTPPCNPTVLWTVFRNPVQISQEQLLALETALYCTHMDDPSPREMINNFRQVQKFDERLVYTSFSQVQVCTAAGLSLGIILSLALAGILGICIVVVVSIWLFRRKSIKKGDNKGVIYKPATKMETEAHA | – | – | 4.2 | 3.5
